Assay results: patent US20250304677A1 (VIB VZW, published 2025)
Each block holds one binder with its values, some of them ahead of it.

How the values were obtained:
[1] = target: T1, mouse folate receptor alpha (mFRα), recombinant protein (mouse, UniProt P35846 25-232); assay: ELISA, periplasmic extract
T1 construct: Bought recombinant proteins (e.g. biotinylated, Acro Biosystems FO1-M82E9); also called mFOLR1; Ms FOLR1
Excerpt: (§1) From the lymphocytes of each llama a separate VHH library was constructed to select and screen for the presence of antigen-specific VHHs. To this end, total RNA from peripheral blood lymphocytes was used as template for first strand cDNA synthesis with an oligo ^{∘}dT) primer. Using this cDNA, the VHH encoding sequences were amplified by PCR, digested with PstI and NotI, cloned into the PstI and NotI sites of the phagemid vector pMECS and transformed into E. coli to generate VHH libraries. To enrich these libraries for FRα ^{∘}or FOLR1, as used interchangeably herein)-specific VHHs, a combinatorial panning approach on recombinant human and mouse FOLR1 was used followed by random selection and screening of clones by ELISA for the presence of antigen-specific VHHs in their periplasmic extracts ^{∘}PEs). In order to gauge the cross-reactivity for human and mouse FOLR1, each clone was tested on both antigens.
(§2) After panning of core76/77 on human and mouse folate receptor alpha ^{∘}FRα), […] were randomly selected from the second and third rounds and analyzed by ELISA on both human and mouse FRα for the presence of FRα-specific VHHs in their periplasmic extracts ^{∘}PE). This led to the identification of 98 hits. For these 98 hits, the off-rate ^{∘}koff) in the PE was determined by biolayer interferometry ^{∘}BLI) on both mouse and human FRα that was directly immobilized onto AR2G biosensors. The off-rates were calculated using a 1:1 binding model. […] Abbreviations: SE: standard error.

[2] = target: T1, mouse folate receptor alpha (mFRα), …; assay: BLI, FRα on AR2G biosensors, 1:1 model
Procedure: As a next step, the kinetic binding constants were determined using BLI ^{∘}Table 3). […] Similar to the ELISA results ^{∘}FIG. 1A-B), higher binding affinities were measured for mouse FRα than human FRα, with KD values […] one order of magnitude in most cases. […] For 3HFO28, binding to human FRα could not be confirmed by BLI, and this VHH was excluded from further characterization.
The kinetic parameters were calculated using a 1:1 binding model.

[3] = target: T2, human folate receptor beta (FRβ) (human, UniProt P14207 17-230, limits assumed); assay: method not named (follows the ELISA of Example 3)
T2 construct: also called hFOLR2; human FOLR2
T2 sequence (P14207 17-230 limits assumed): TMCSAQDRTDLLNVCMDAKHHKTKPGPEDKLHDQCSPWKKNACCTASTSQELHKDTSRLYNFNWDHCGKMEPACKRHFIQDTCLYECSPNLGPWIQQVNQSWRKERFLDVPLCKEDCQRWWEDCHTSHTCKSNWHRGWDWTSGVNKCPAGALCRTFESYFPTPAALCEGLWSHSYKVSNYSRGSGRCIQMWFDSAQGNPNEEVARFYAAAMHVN

[4] = target: T1, mouse folate receptor alpha (mFRα), …; assay: BLI, periplasmic extract, FRα on AR2G biosensors
Procedure: as §2

[5] = target: T1, mouse folate receptor alpha (mFRα), …; assay: ELISA on recombinant mouse FOLR1, cMyc tag detection, normalised binding, non-linear fit
Procedure: (§3) Data were normalized and technical replicates were plotted as mean±SD. Data were fitted by non-linear regression and the half-maximal effective concentration ^{∘}EC50) was calculated using GraphPad Prism 9 software. ^{∘}FIG. 1C and FIG. 1D) Binding affinity determination of anti-FOLR1 VHHs for native FOLR1. Mouse ^{∘}FIG. 1C) or human FOLR1 FIG. 1D) was overexpressed on HEK293T cells and binding of the anti-FOLR1 VHHs was assessed using flow cytometry. The mean fluorescence intensity ^{∘}MFI) of the phycoerythrin signal was plotted for each VHH concentration. Data were fitted by non-linear regression using GraphPad Prism 9 software. ^{∘}FIG. 1E) Determination of the competition of representative family members with folic acid ^{∘}FA) using ELISA. Mouse FOLR1 was coated on the plate and was pre-incubated with or without 100 μM FA before adding the VHHs. Data were fitted by non-linear regression using GraphPad Prism 9 software.
(§4) In a first step, binding affinity and cross-reactivity of the purified VHHs to human and mouse FRα was assessed by ELISA, using detection of the cMyc tag ^{∘}FIG. 1A-B). […] 2HFO19 ^{∘}family 1) was the best binder of all tested VHHs to both mouse and human FRα with an EC₅₀ of 0.1 nM and 0.4 nM respectively ^{∘}FIG. 1A-B).

[6] = target: T3, human folate receptor alpha (hFRα), recombinant protein (human, UniProt P15328 25-233); assay: ELISA on recombinant human FOLR1, cMyc tag detection, normalised binding, non-linear fit
T3 construct: Bought recombinant proteins (His-tagged, or biotinylated via Avi-tag, e.g. AcroBiosystems FO1-H82E2, F01-H52H1); also called hFOLR1; huFOLR1
T3 sequence (P15328 25-233 limits assumed): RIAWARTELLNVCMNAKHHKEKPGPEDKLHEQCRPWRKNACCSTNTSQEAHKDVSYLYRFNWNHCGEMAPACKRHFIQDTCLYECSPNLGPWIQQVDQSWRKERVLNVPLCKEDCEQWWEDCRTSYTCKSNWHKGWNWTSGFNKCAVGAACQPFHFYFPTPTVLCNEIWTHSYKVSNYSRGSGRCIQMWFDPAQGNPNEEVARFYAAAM
Procedure: as §3, §4

[7] = target: T3, human folate receptor alpha (hFRα), …; assay: BLI, periplasmic extract, FRα on AR2G biosensors; unpurified periplasmic extract, BLI off-rate screen
Procedure: as §2

[8] = target: T3, human folate receptor alpha (hFRα), …; assay: ELISA, periplasmic extract; unpurified periplasmic extract, PE-ELISA (ratio of coated to uncoated well)
Excerpt: as §1, with “In order to gauge the cross-reactivity for human and mouse FOLR1, each clone was tested on both antigens.” left out
After panning of core76/77 on human and mouse folate receptor alpha ^{∘}FRα), 95 colonies were randomly selected from the second and third rounds and analyzed by ELISA on both human and mouse FRα for the presence of FRα-specific VHHs in their periplasmic extracts ^{∘}PE). […] For these 98 hits, the off-rate ^{∘}koff) in the PE was determined by biolayer interferometry ^{∘}BLI) on both mouse and human FRα that was directly immobilized onto AR2G biosensors. The off-rates were calculated using a 1:1 binding model. […]

[9] = target: T3, human folate receptor alpha (hFRα), …; assay: BLI, biotinylated FOLR1 on streptavidin biosensors
Procedure: (§5) The off-rates of the 2HFO9 ^{∘}FIG. 5A) and 2MFR67 ^{∘}FIG. 5B) mutants and the three wild-type ^{∘}WT) VHHs from family 3 were determined by biolayer interferometry ^{∘}BLI) on both mouse and human biotinylated folate receptor alpha ^{∘}FOLR1) that was immobilized on streptavidin biosensors. The off-rates were calculated using a 1:1 binding model. The fold change compared to the off-rates of the corresponding WT VHH is represented as the WT VHH off-rate divided by the off-rate of the mutant for the VHHs that show an improved off-rate compared to the WT. For the VHHs that show a worse off-rate compared to the WT, the fold change is represented as the negative value of the mutant VHH off-rate divided by the WT off-rate. The red bars represent the WT 2HFO9 and 2MFR67 in the upper and lower panel respectively.

[10] = target: T1, mouse folate receptor alpha (mFRα), …; assay: BLI, biotinylated FOLR1 on streptavidin biosensors
Procedure: as §5

[11] = target: T1, mouse folate receptor alpha (mFRα), …; assay: method of this value not stated (ELISA, BLI and FACS named)

T1 sequence (P35846 25-232 limits assumed): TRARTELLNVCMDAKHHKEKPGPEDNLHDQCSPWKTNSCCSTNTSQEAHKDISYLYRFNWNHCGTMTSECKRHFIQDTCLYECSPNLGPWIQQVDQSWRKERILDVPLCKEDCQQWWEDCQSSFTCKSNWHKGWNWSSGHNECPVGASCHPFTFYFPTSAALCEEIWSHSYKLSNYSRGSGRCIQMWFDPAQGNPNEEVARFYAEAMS

PE-ELISA (ratio to uncoated well) [1]: 34.9
Kd [2]: 12.6 nM
koff [2]: 0.00582 s⁻¹
kon [2]: 464000 M⁻¹ s⁻¹
binding result [3]: no binding
koff [4]: 0.00425 s⁻¹
EC50 [5]: 84.3 nM
EC50 [6]: 1.5 nM
koff [7]: 0.00827 s⁻¹
PE-ELISA (ratio to uncoated well) [8]: 35.6
B1: VHH 3HFO28 (family 7) (VHH)
VHH: QVQLQESGGGLVQPGGSLRLSCAASGSTLDRYEIGWFRQAPGKGRERVSCISTTSSTYEDSVKGRFTISRDNAKNTVYLQMNSLKPEDTAVYYCATVRVAWSTCFPTGDSWGKGTQVTVSS

Fold hu/ms (koff) [9]: 7
koff [9]: 0.0154 s⁻¹
Fold to 2HF042 (koff) [10]: 1
koff [10]: 0.00222 s⁻¹
Kd [11]: 23.3 nM
B2: 2HFO42-NT (2HFO42 fused to neurotensin) (VHH)
VHH: QVQLQESGGGLVQAGGSLRLSCAASGSGFSGMIMGWYRQVPGKQRELVATVTSHGTTNYADSVKGRFTISRDNAKNTVLLQMNSLKPEDTAVYYCNAHFPGIYWGKGTQVTVSS
